Publication PMC6309453

Columns and labels:
[1] = molecular target: T1, GST-NST2 (Arabidopsis thaliana) (UniProt Q9M274); assay: EMSA; settings: 10 mM Tris pH 7.5, 50 mM KCl, 1 mM DTT, 2.5% glycerol, 5 mM MgCl2, 0.1% IGEPAL CA-630, 0.05 ug/ul calf thymus DNA, 150 ng protein, 30 min room temperature
T1 sequence: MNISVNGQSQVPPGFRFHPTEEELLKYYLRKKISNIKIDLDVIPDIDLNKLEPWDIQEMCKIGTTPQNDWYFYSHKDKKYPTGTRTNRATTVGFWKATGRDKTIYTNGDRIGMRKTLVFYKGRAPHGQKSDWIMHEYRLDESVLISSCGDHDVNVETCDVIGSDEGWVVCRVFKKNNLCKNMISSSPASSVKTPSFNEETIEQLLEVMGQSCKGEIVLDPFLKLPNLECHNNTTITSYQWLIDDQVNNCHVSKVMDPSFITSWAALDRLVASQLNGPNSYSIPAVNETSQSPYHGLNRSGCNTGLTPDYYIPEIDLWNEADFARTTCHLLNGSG

[2] = molecular target: T2, GST-SND1 (NST3) (Arabidopsis thaliana) (UniProt Q9LPI7); assay: EMSA; settings: 10 mM Tris pH 7.5, 50 mM KCl, 1 mM DTT, 2.5% glycerol, 5 mM MgCl2, 0.1% IGEPAL CA-630, 0.05 ug/ul calf thymus DNA, 150 ng protein, 30 min room temperature
T2 sequence: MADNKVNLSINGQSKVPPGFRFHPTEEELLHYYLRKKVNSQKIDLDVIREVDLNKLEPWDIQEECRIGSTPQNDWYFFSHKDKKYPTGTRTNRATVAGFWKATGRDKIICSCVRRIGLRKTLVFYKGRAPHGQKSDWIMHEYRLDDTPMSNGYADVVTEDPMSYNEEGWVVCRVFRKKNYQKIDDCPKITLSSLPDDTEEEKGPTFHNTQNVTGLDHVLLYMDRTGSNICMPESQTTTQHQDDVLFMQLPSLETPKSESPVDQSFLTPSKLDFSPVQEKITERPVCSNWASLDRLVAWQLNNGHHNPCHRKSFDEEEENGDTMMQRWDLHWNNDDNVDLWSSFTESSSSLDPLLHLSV

Sequence	binding [1]	binding [2]
CCAGATTTGGTAAAGTTTATAAGATACAAAATATTAAGTAAGACTAAAGTAGAAATACATAATAACTTGAAAGCTACTCTAAGTTATACAAATTCTAAAGAACTCAAAAGAATAAC (double strand) [CESA4Bay-C]	binds	binds
GAAAGCTACTCTAAGTTATACAAATTCTAAAGAACTCAAAAGAATAACAAACAGTAGAAGTTGGAAGCTCAAGCAATTAAATTA (double strand) [CESA4Bay-D]	no binding	no binding
GAAAGCTACTCTAAGTTATACAAATTCTAAAGAACTCAAAAGAATAACAAACAGTAGAAGTTGGAAGCTCAAGCAATTAAATTA (double strand) [CESA4Sha-D]	no binding	no binding
GTTGGAAGCTCAAGCAATTAAATTATATAAAAACACTAACTACACTGAGCTGTCTCCTTCTTCCACCAAATCTTGTTGCTGTCTCTTGAAGCTTTCTTATGACAC (double strand) [CESA4Bay-E]	binds	binds
GTTGGAAGCTCAAGCAATTAAATTATATAAAAACACTAACTACACTGAGCTGTCTCCTTCTTCCACCAAATCTTGTTGCTGTCTCTTGAAGCTTTCTTATGACAC (double strand) [CESA4Sha-E]	binds	binds
